We go through one molecule from PMC3076238, “Improved mycobacterial protein production using a Mycobacterium smegmatis groEL1ΔC expression strain” (BMC Biotechnology, 2011).

The test addresses AccA3, α-subunit of the acyl-CoA carboxylase AccD5-AccA3 complex (Rv3285) (M. tuberculosis, UniProt P96890 1-600). Nature of the test: SEC; […]; 25 mM Tris-HCl pH 8.0, 150 mM NaCl, 1 mM DTT. The following applies: both partners purified.

Sequence of AccA3, α-subunit of the acyl-CoA carboxylase AccD5-AccA3 complex (Rv3285) (P96890 whole entry, one chain of several): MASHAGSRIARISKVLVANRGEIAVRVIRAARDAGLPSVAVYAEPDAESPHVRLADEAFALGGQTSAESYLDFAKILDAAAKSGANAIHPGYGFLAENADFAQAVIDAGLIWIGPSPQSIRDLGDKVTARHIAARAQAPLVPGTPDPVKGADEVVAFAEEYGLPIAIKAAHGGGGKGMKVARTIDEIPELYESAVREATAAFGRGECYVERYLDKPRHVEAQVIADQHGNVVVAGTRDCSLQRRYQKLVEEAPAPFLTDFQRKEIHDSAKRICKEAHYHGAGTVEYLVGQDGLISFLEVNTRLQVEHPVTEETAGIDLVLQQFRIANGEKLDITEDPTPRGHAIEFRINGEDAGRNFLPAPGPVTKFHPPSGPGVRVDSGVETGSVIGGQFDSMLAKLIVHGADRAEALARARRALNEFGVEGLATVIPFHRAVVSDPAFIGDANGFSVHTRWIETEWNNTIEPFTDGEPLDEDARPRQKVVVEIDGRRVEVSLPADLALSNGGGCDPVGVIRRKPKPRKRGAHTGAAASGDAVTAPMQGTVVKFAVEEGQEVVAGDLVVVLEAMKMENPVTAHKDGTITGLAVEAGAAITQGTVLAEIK

B1: AccD5, β-subunit of the acyl-CoA carboxylase AccD5-AccA3 complex (Rv3280), his-tagged (enzyme)
chain: MTSVTDRSAHSAERSTEHTIDIHTTAGKLAELHKRREESLHPVGEDAVEKVHAKGKLTARERIYALLDEDSFVELDALAKHRSTNFNLGEKRPLGDGVVTGYGTIDGRDVCIFSQDATVFGGSLGEVYGEKIVKVQELAIKTGRPLIGINDGAGARIQEGVVSLGLYSRIFRNNILASGVIPQISLIMGAAAGGHVYSPALTDFVIMVDQTSQMFITGPDVIKTVTGEEVTMEELGGAHTHMAKSGTAHYAASGEQDAFDYVRELLSYLPPNNSTDAPRYQAAAPTGPIEENLTDEDLELDTLIPDSPNQPYDMHEVITRLLDDEFLEIQAGYAQNIVVGFGRIDGRPVGIVANQPTHFAGCLDINASEKAARFVRTCDCFNIPIVMLVDVPGFLPGTDQEYNGIIRRGAKLLYAYGEATVPKITVITRKAYGGAYCVMGSKDMGCDVNLAWPTAQIAVMGASGAVGFVYRQQLAEAAANGEDIDKLRLRLQQEYEDTLVNPYVAAERGYVDAVIPPSHTRGYIGTALRLLERKIAQLPPKKHGNVPL
For B1, the binding result was “binds”.
